These results are taken from paper PMC9445664, “A transcription factor TaMYB5 modulates leaf rolling in wheat”.

Data set [1] has as its target T1, TaMYB5 (GST-TaMYB5) (Triticum aestivum, UniProt A0A3B6ELG7 1-265). Description: EMSA; unlabeled N1 competes; LightShift Chemiluminescent EMSA Kit (Thermo); buffer, salt, pH and temperature not stated. To be noted: protein: recombinant; tags: N-terminal GST; label: biotin (labeled probe); blunt.
Data set [2] has as its target T1, TaMYB5 (GST-TaMYB5). Put plainly: competition; EMSA; unlabeled mutant probe against biotin-labeled N1; LightShift Chemiluminescent EMSA Kit (Thermo); buffer, salt, pH and temperature not stated. To be noted: protein: recombinant; tags: N-terminal GST; blunt.

T1 sequence (A0A3B6ELG7 entry or part of it): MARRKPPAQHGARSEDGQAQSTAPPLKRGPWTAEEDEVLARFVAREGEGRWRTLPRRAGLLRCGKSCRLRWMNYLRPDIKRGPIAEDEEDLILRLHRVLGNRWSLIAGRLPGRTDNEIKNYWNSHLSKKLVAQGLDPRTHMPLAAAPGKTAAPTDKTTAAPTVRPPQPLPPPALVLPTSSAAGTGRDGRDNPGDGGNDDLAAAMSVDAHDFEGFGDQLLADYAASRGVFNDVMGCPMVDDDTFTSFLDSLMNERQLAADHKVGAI

B1: 3xAC probe (AC box of TaNRL1 promoter) (dsDNA)
DNA 1: AGTCCACCTAACGCCACCTAACGCCACCTAACGCTGTT
DNA 2: AACAGCGTTAGGTGGCGTTAGGTGGCGTTAGGTGGACT
Turning to B1, the binding result in the data set with TaMYB5 (GST-TaMYB5) [1] was “binds”.

B2: mutant 3xAC probe (dsDNA)
DNA 1: AGTCCAAATATTGCCAAATATTGCCAAATATTGCTGTT
DNA 2: AACAGCAATATTTGGCAATATTTGGCAATATTTGGACT
For the molecule B2, in the data set with TaMYB5 (GST-TaMYB5) [2], the binding result is on record as “no binding”.
